We go through 167 variants from the RNAGym collection of RNA variant scans (doi:10.7554/elife.90254).

Sequences and labels used below:
B1: LINE1-full (parent)
chain: UACGUAGGUGGUUUUCCCCUGAUAGUGCUAAGGGGGCCUGGAAGUUUGGACUGGGCAGAGCUCAACACAGCGUGGCAAAGUGGCUGUGGCUAGACUGCCUCUCUGGAUUCCUCGUCACUCAGCAGGGCAUCUCUGAGAGAAAUGCC

Variants of B1 are the subject of the data set. The data set can be described thus: self-cleavage, relative activity (ratio to wild type); higher = more cleavage; in vitro, sequencing; the parent is a self-cleaving ribozyme.
With A42C G54A, the self-cleavage is 0.13.

For A42G C98U, the self-cleavage came to 0.53.

On to U39C U87A, for which the self-cleavage worked out at 0.06.

Consider A42U U62C, for which the self-cleavage came to 0.04.

Regarding A42G C101U, the self-cleavage turned out to be 1.75.

Take A42C U134C: the self-cleavage amounted to 1.31.

On to U39A G135U, for which the self-cleavage stood at 1.99.

On to A42G G53A, for which the self-cleavage turned out to be 1.36.

As to U39C A78G, the self-cleavage came out at 0.95.

In the case of A42C A92G, the self-cleavage stood at 0.15.

Consider A42U C128G, for which the self-cleavage turned out to be 0.87.

For the variant G41U C98U, the self-cleavage was determined as 0.12.

As for A42G A77G, the self-cleavage is 2.66.

In the case of A42G A77U, the self-cleavage turned out to be 1.02.

Regarding G40A U81A, the self-cleavage amounted to 1.71.

Regarding U39C U102C, the self-cleavage was 0.99.

In the case of U39G U102C, the self-cleavage was 1.34.

With A42C A117G, the self-cleavage came to 0.77.

As for A42G A124U, the self-cleavage came to 1.35.

Regarding A42C C110A, the self-cleavage was 1.68.

As to A42U A138G, the self-cleavage amounted to 1.28.

On to A42G A65C, for which the self-cleavage turned out to be 0.07.

For A42G A65G, the self-cleavage is 0.14.

A42G A50G: the self-cleavage is 0.91.

As to U39G A136G, the self-cleavage came out at 1.65.

Turning to G40U U85G, the self-cleavage amounted to 0.28.

As to A42G U45G, the self-cleavage came to 0.1.

In the case of A42G U45A, the self-cleavage worked out at 1.4.

Take G40A A141G: the self-cleavage was determined as 1.06.

For U39C C133U, the self-cleavage came to 1.31.

For the variant U39G U73A, the self-cleavage worked out at 1.88.

In the case of A42U A77G, the self-cleavage came out at 1.72.

For the variant A42U A77U, the self-cleavage was 0.83.

On to U39C G135A, for which the self-cleavage came to 1.2.

With A42G U85C, the self-cleavage worked out at 0.38.

On to A42G U85G, for which the self-cleavage was 0.26.

With G41U A64G, the self-cleavage turned out to be 0.16.

As to A42G U62A, the self-cleavage was 0.06.

A42C U119C: the self-cleavage amounted to 0.

As to A42U A129U, the self-cleavage worked out at 0.86.

For A42U A129G, the self-cleavage came out at 1.34.

Consider A42G U108C, for which the self-cleavage was 1.55.

Regarding G41A A117G, the self-cleavage came to 1.53.

On to G40U A117G, for which the self-cleavage was found to be 0.97.

Consider A42U U45C, for which the self-cleavage amounted to 1.4.

Consider A42G G72U, for which the self-cleavage amounted to 1.38.

Consider A42G G72A, for which the self-cleavage is 1.11.

G40A U62C: the self-cleavage came out at 0.04.

On to U39G A65C, for which the self-cleavage stood at 0.04.

As to A42G C51U, the self-cleavage was 1.28.

G41C A138G: the self-cleavage was found to be 0.97.

In the case of A42G A69G, the self-cleavage was determined as 0.54.

G40A A107G: the self-cleavage amounted to 1.17.

Consider U39C U130C, for which the self-cleavage is 2.49.

In the case of U39C U130G, the self-cleavage was 1.75.

Regarding U39C A141U, the self-cleavage turned out to be 2.2.

For the variant G40A U52C, the self-cleavage stood at 1.23.

Take G40A U52A: the self-cleavage was found to be 1.25.

With A42G U102A, the self-cleavage came to 1.38.

On to G41U A117U, for which the self-cleavage amounted to 1.24.

For G41A C95U, the self-cleavage stood at 0.12.

Consider A42G U81C, for which the self-cleavage was 1.55.

As to A42G U81A, the self-cleavage was found to be 2.11.

With U39G A121G, the self-cleavage amounted to 1.23.

In the case of A42G G58A, the self-cleavage was 0.

For the variant G41U U100G, the self-cleavage came out at 0.78.

For U39C G54U, the self-cleavage was 0.39.

In the case of U39C G54A, the self-cleavage amounted to 0.58.

In the case of A42G A121C, the self-cleavage came to 0.84.

With U39C C110G, the self-cleavage turned out to be 0.51.

For U39A U143A, the self-cleavage amounted to 1.37.

Consider A42G C68U, for which the self-cleavage was found to be 0.18.

As to G40U U47A, the self-cleavage is 1.86.

For G40A G88A, the self-cleavage amounted to 0.04.

Take A42G G114A: the self-cleavage amounted to 1.48.

Regarding A42G A138G, the self-cleavage amounted to 1.34.

Take A42G A138U: the self-cleavage came to 1.6.

Turning to A42G U130A, the self-cleavage came out at 1.47.

For A42G U130C, the self-cleavage turned out to be 1.57.

Consider G40A A50U, for which the self-cleavage is 0.84.

As for U39G U46C, the self-cleavage is 1.36.

On to U39A U119A, for which the self-cleavage was found to be 1.46.

On to U39A U119C, for which the self-cleavage was 1.44.

Consider G41A U130A, for which the self-cleavage stood at 1.57.

With A42C U102C, the self-cleavage amounted to 1.13.

Take G40A U119A: the self-cleavage was determined as 0.94.

Take A42U A69C: the self-cleavage came out at 0.02.

Turning to A42G G48A, the self-cleavage is 0.85.

Turning to G40A U143C, the self-cleavage is 1.26.

On to G41U U134C, for which the self-cleavage was 1.21.

Turning to A42U A107G, the self-cleavage is 1.25.

As to G40U A43G, the self-cleavage turned out to be 1.11.

Take A42G U119A: the self-cleavage turned out to be 0.95.

U39A U130C: the self-cleavage turned out to be 1.5.

Regarding A42G C84A, the self-cleavage was 0.15.

For the variant A42G A43U, the self-cleavage is 1.56.

With A42G A57G, the self-cleavage turned out to be 0.95.

In the case of A42G A57U, the self-cleavage was 0.14.

For A42G G55A, the self-cleavage was found to be 0.29.

As for U39C A107C, the self-cleavage was found to be 2.09.

Regarding G40A A57G, the self-cleavage was 0.4.

As to A42U U52A, the self-cleavage was determined as 1.2.

With G41A U104C, the self-cleavage was 1.53.

As to U39A U81C, the self-cleavage amounted to 1.39.

G41U U132A: the self-cleavage stood at 1.35.

As for G41A U108C, the self-cleavage was 1.23.

On to U39C G58U, for which the self-cleavage came out at 0.03.

On to U39C U112A, for which the self-cleavage was 1.45.

In the case of G40U, the self-cleavage amounted to 1.

G40A: the self-cleavage was determined as 1.16.

For G40C, the self-cleavage was 1.12.

As to A42C U91C, the self-cleavage amounted to 0.4.

G41C U45C: the self-cleavage came to 0.68.

Turning to U39G A140G, the self-cleavage was 1.31.

Regarding U39C C76U, the self-cleavage was determined as 0.7.

With U39G A77G, the self-cleavage worked out at 1.53.

As for U39C G41A, the self-cleavage was 1.41.

Regarding G41C U104G, the self-cleavage was determined as 1.58.

As for A42G A78G, the self-cleavage was 1.49.

Turning to G41A U143C, the self-cleavage turned out to be 0.95.

Consider G41A U143G, for which the self-cleavage was 1.11.

Take A42G U112A: the self-cleavage is 2.01.

G41U U73C: the self-cleavage was 2.76.

As to A42G C103A, the self-cleavage is 1.49.

U39G U115A: the self-cleavage was 1.31.

On to U39C U134G, for which the self-cleavage is 1.39.

Turning to U39C U134C, the self-cleavage stood at 1.5.

Regarding U39C U134A, the self-cleavage worked out at 0.86.

G40A A78G: the self-cleavage stood at 0.77.

Regarding U39C U109A, the self-cleavage is 1.15.

In the case of G40A U85G, the self-cleavage is 0.04.

As for U39C U119A, the self-cleavage was determined as 1.08.

On to U39C U119C, for which the self-cleavage worked out at 1.38.

As for U39C U119G, the self-cleavage amounted to 1.36.

On to G40A A65G, for which the self-cleavage amounted to 0.04.

In the case of U39C G127A, the self-cleavage is 1.03.

G40A A129G: the self-cleavage turned out to be 1.42.

On to G40A A129U, for which the self-cleavage is 0.46.

Regarding G40U A67G, the self-cleavage came to 0.21.

In the case of G41C U100C, the self-cleavage came to 2.63.

Turning to A42C C95U, the self-cleavage was 0.04.

As to G40A U100C, the self-cleavage came out at 1.59.

Consider G40A A136U, for which the self-cleavage was determined as 1.04.

For the variant A42G G144U, the self-cleavage was found to be 1.65.

Turning to U39C A65U, the self-cleavage worked out at 0.12.

Regarding A42U A141U, the self-cleavage is 0.81.

For the variant G40A G60U, the self-cleavage was determined as 0.02.

As to G41A G60U, the self-cleavage amounted to 0.04.

G40A A142G: the self-cleavage was 0.79.

With U39C U52C, the self-cleavage was determined as 0.37.

For U39C U52A, the self-cleavage is 1.4.

A42G U104G: the self-cleavage is 0.8.

Turning to A42U A43G, the self-cleavage was 1.51.

In the case of A42U A43U, the self-cleavage was 0.84.

Consider A42G A67G, for which the self-cleavage came out at 0.88.

For G40A U109C, the self-cleavage is 0.88.

For the variant A42G U100C, the self-cleavage came to 1.54.

For A42G U100A, the self-cleavage is 1.28.

For the variant U39C A69C, the self-cleavage came out at 0.11.

For the variant U39C A69U, the self-cleavage stood at 0.06.

Take A42U C103A: the self-cleavage is 0.91.

Turning to A42G C111U, the self-cleavage came out at 1.37.

On to U39A U87A, for which the self-cleavage came to 0.07.

For A42U A64G, the self-cleavage was found to be 0.14.

G40U G139A: the self-cleavage worked out at 1.17.

Consider U39A U45A, for which the self-cleavage turned out to be 1.54.

In the case of U39A U45C, the self-cleavage was determined as 1.58.
